From paper PMC9561270, “Phosphorylation of the auxin signaling transcriptional repressor IAA15 by MPKs is required for the suppression of root development under drought stress in Arabidopsis” (Nucleic Acids Research, 2022)

Assays:
His-MPK6 = biological target: T1, His-MPK6 (Arabidopsis thaliana, UniProt Q39026 1-395); assay: pull-down; 2 ug GST or GST-IAA15 on glutathione-Sepharose 4B beads; 1 ug His-MPK added, overnight at 4 C; 50 mM Tris-HCl pH 7.5, 200 mM NaCl, 1% Triton X-100, 0.1 mM EDTA, 0.5 mM DTT; detected with anti-His antibodies; conditions: both partners purified
T1 construct: also called His-fused MPK6; source: E. coli M15, purified (Ni-NTA agarose); not shown: His, N-terminal, kept
T1 sequence (Q39026 whole entry, the tested form may be a part): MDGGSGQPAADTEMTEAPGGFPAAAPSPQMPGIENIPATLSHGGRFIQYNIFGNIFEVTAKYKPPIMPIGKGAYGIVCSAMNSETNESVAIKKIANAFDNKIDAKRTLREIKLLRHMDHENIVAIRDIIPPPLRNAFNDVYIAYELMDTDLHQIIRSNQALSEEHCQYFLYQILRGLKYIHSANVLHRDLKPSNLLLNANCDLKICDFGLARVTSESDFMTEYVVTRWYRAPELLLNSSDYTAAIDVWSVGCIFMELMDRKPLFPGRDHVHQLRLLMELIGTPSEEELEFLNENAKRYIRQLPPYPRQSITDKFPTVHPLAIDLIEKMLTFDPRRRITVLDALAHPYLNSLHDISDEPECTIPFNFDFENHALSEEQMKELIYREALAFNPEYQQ

His-MPK3 = biological target: T2, His-MPK3 (Arabidopsis thaliana, UniProt Q39023 1-370); assay: as above; conditions: both partners purified
T2 construct: also called His-fused MPK3; source: E. coli M15, purified (Ni-NTA agarose); not shown: His, N-terminal, kept
T2 sequence (looked up): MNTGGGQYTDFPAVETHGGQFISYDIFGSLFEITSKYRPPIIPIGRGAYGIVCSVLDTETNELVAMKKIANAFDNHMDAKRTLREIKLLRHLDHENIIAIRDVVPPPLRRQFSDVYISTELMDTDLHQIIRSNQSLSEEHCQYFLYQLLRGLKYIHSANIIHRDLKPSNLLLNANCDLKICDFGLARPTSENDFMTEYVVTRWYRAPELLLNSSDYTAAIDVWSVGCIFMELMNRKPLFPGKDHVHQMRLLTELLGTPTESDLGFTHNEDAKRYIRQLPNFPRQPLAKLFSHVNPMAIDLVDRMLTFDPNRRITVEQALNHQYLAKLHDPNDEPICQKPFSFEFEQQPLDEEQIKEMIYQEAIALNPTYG

- binding result (His-MPK6): binds
- binding result (His-MPK3): binds
B1: GST-IAA15 (natural protein, Arabidopsis thaliana, UniProt Q9C966 1-179, looked up)
chain: MSPEEYVRVWPDSGDLGGTELTLALPGTPTNASEGPKKFGNKRRFLETVDLKLGEAHENNYISSMVTNDQLVGWPPVATARKTVRRKYVKVALDGAAYLRKVDLGMYDCYGQLFTALENMFQGIITICRVTELERKGEFVATYEDKDGDLMLVGDVPWMMFVESCKRMRLMKTGDAIGL
notes: Auxin-responsive protein IAA15, Arabidopsis thaliana, At1g80390, full length, cloned into pGEX-4T-1; also called GST-fused IAA15; GST-IAA15^WT; source: E. coli BL21 (DE3), purified (glutathione Sepharose-4B); not shown: GST, N-terminal, kept
